Numbering of substitutions follows the chain as printed.
Tests used:
[1] = molecular target: T1, FGF-8 (Homo sapiens, UniProt P55075); assay: FGF-8 binding activity by BIAcore 2000, immobilized FGF-8; conditions: antibody 50 μg/mL; FGF-8 immobilized 4498 RU
T1 construct: purchased R & D
T1 sequence (P55075 23-215 isoform P55075-3 limits assumed): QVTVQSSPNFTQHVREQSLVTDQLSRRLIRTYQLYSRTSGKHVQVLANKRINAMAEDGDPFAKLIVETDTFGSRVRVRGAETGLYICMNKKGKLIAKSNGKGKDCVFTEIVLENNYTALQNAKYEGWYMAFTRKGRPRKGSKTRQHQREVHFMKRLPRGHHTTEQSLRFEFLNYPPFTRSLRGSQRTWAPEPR
Description: In order to examine the FGF-8 binding activity of the various anti-FGF-8 neutralizing CDR-grafted antibodies obtained in 4. of Reference Example 2 in more detail, the FGF-8 binding activity of the various anti-FGF-8 neutralizing CDR-grafted antibodies was measured and compared in the following manner using BIAcore2000 (manufactured by BIACORE). The YB2/0 cell-derived anti-FGF-8 neutralizing chimeric antibody KM3334 obtained in 3.(2) of Reference Example 1 was used as a positive control.
HBS-EP (manufactured by BIACORE) was used hereinafter as a sample diluent and a buffer during measurement. First, Sensor Chip CM5 (manufactured by BIACORE) was installed, and FGF-8 (manufactured by R & D) dissolved in 31.25 μg/mL of 10 mmol/L acetate buffer solution (pH 4.0) was immobilized on the surface of the sensor chip by the amine coupling method. The immobilization amount measured by using a resonance signal (RU) as an index was 4498 RU.
60 μL of each of the antibody solutions was added to an FGF-8 immobilized flow cell at a flow rate of 20 μL/min, and the dissociation reaction was then monitored for 3 minutes. After the dissociation reaction, 20 μL of a 10 mmol/L glycine-hydrochloride solution (pH 1.5) was added to the flow cell twice continuously to regenerate the surface of the chip. This cycle was performed with the antibody solution at various concentrations (from 50 to 0.068 μg/mL) to obtain sensor grams at various concentrations. The sensor grams of the respective antibodies were converted to sensor grams of specific reactions by deducing a sensor gram obtained using chimeric antibody KM871 (Shitara K. et al., Cancer Immunol. Immunother., 36, 373-380, 1993) to GD3 as a negative control. […] Accordingly, the binding activity of the various antibodies was compared in terms of the binding [resonance signal (RU)] in the binding reaction. […] The effect of restoring the binding activity was not observed in the 6 amino acid residues of FR of VH.

[2] = molecular target: T1, FGF-8; assay: FGF-8 neutralizing activity: FGF-8-dependent growth of mouse breast cancer cell line SC-3; type: cell-based; conditions: SC-3 cells, FGF-8 50 ng/mL, WST-1
Description: The FGF-8 neutralizing activity of the purified anti-FGF-8 neutralizing chimeric antibody was evaluated by measured the following FGF-8-dependent growth inhibitory effect of mouse breast cancer cell line SC-3 (Tanaka A. et al., Proc. Natl. Acad. Sci. USA, 89, 8928-8932, 1992) described below. That is, SC-3 cells were suspended at a concentration of 3.0×10^4 cells/mL in DMEM:Ham's F12 (1:1) medium [a mixed medium of DMEM medium and Ham's F12 medium (manufactured by Invitrogen) at a ratio of 1:1] containing activated charcoal-treated FBS at a concentration of 2%. The suspension was inoculated on a 96-well plate in an amount of 150 μL (4.5×10^3 cells)/well. After the culturing in a 5% CO2 incubator at 37° C. for 18 hours, the medium was replaced with 100 μL/well of a test medium. The test medium was produced by dissolving 50 ng/mL of FGF-8 (manufactured by R & D) and the anti-FGF-8 neutralizing chimeric antibody at each dilute concentration in DMEM:Ham's F12 (1:1) medium containing 0.1% BSA. The chimeric antibody KM2760 to human chemokine CCR4 described in WO 01/64754 was used as an antibody of a negative control. After the culturing in a 5% CO2 incubator at 37° C. for 48 hours, the medium was replaced with a freshly prepared test medium, and the culturing was further performed for 48 hours. WST-1 Reagent (manufactured by Roche) was added in an amount of 10 μL/well, and the mixture was culturing in a 5% CO2 incubator at 37° C. for 1 hour while being gently stirred. Then, absorbance (OD450,650) was measured. In FIG. 21, the abscissa represents a concentration of an antibody added, and the ordinate represents relative growth (%) to growth when adding 50 ng/mL of FGF-8 alone. The relative growth (%) to growth when adding 50 ng/mL of FGF-8 alone was calculated by the following formula. Relative growth (%) to growth when adding FGF-8={(Absorbance when adding FGF-8 and antibody−Absorbance when not adding FGF-8 and antibody)/(Absorbance when adding FGF-8 alone−Absorbance when not adding FGF-8 and antibody)}×100

[3] = molecular target: T2, compound 1 as a partial peptide of FGF-8 (Homo sapiens, UniProt P55075); assay: FGF-8 binding activity by BIAcore 2000, immobilized biotin-labeled compound 1; conditions: antibody 16.7 μg/mL; FGF-8 peptide immobilized 35 RU
T2 construct: 17; made in house; host or cells: chemical synthesis
T2 sequence (P55075 with tags, fused parts or gaps isoform P55075-3 limits assumed): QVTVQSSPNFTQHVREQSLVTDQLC
Description: In order to examine the FGF-8 binding activity of the anti-FGF-8 neutralizing CDR-grafted antibodies obtained in 5. of Reference Example 3, the FGF-8 binding activity of the various anti-FGF-8 neutralizing CDR-grafted antibodies was measured and compared through BIAcore 2000 using compound 1 as a partial peptide of FGF-8 with the C terminal labeled with biotin in the following manner. The anti-FGF-8 neutralizing chimeric antibody KM3034 derived from CHO/DG44 cells obtained in 3. (1) of Reference Example 1 was used as a positive control.
HBS-EP was used as a sample diluent and a buffer during measurement. First, Sensor Chip SA (manufactured by BIACORE) was installed, and 5 μL of compound 1 labeled with biotin which had been adjusted to 0.05 μg/mL was added at a flow rate of 5 μL/min. Then, 5 μL of a 10 mmol/L glycine-hydrochloride solution (pH 1.5) was added twice continuously to wash the tip surface. The immobilization amount of the FGF-8 peptide was 35 RU.
60 μL of each of the antibody solutions was added to an FGF-8 peptide immobilized flow cell at a flow rate of 20 μL/min, and the dissociation reaction was then monitored for 3 minutes. After the dissociation reaction, 20 μL of 10 mmol/L glycine-hydrochloride solution (pH 1.5) was added twice continuously to regenerate the chip surface. This cycle was performed on the antibody solution at various concentrations (from 50 to 1.85 μg/mL) to obtain sensor grams at various concentrations. The sensor grams of the respective antibodies were converted to sensor grams of specific reactions by deduceing a sensor gram obtained using the chimeric antibody KM871 to GD3 as a negative control.

B1: HV0LV0: YB2/0 cell-derived anti-FGF-8 neutralizing CDR-grafted antibody, VH HV.0 (SEQ ID NO. 18), VL LV.0 (SEQ ID NO. 19) (antibody, V domains shown)
VH: QVQLVQSGAEVKKPGASVKVSCKASGYTFTDYYLNWVRQAPGQGLEWMGEIDPGSDSIYYNENLEGRVTITADTSTSTAYMELSSLRSEDTAVYYCARYGYSRYDVRFVYWGQGTLVTVSS
VL: DIVMTQSPLSLPVTPGEPASISCRSSQSLVHSNGRTYLEWYLQKPGQSPQLLIYKVSNRISGVPDRFSGSGSGTDFTLKISRVEAEDVGVYYCFQGSHVPYTFGQGTKVEIK
modifications: HV.0, a designed amino acid sequence of VH of an anti-FGF-8 CDR-grafted neutralizing antibody; LV.0, a designed amino acid sequence of VL of an anti-FGF-8 CDR-grafted neutralizing antibody
binding reaction [resonance signal (RU)] [1]: slightly low in comparison to KM3334 and HV0LV6

B2: HV0LV2-1/CHO: CHO/DG44 cell-derived anti-FGF-8 neutralizing CDR-grafted antibody, VH HV.0, VL LV.2-1 (SEQ ID NO. 46) (antibody, V domains shown)
VH: B1 VH
VL: B1 VL with L51V, Y92F
FGF-8 neutralizing activity (SC-3 cell growth inhibitory activity) [2]: the lowest neutralizing activity | binding reaction [resonance signal (RU)] [3]: the higher binding reaction

B3: KM3334: anti-FGF-8 neutralizing human chimeric antibody, VH SEQ ID NO. 5, VL SEQ ID NO. 6, human γ1/κ, YB2/0 cell-derived (antibody, listed as Mus musculus, V domains shown)
VH: QVQLQQSGAEVARPGASVKLSCKASGYTFTDYYLNWVKQRSGQGLEWIGEIDPGSDSIYYNENLEGRATLTADKSSSTAYMQLNSLTSEDSAVYFCARYGYSRYDVRFVYWGQGTLVTVST
VL: DVLMTQTPLSLPVSLGDQASISCRSSQSLVHSNGRTYLEWYLQKPGQSPKVLIYKVSNRISGVPDRFSGSGSGTDFTLKISRVEAEDLGVYFCFQGSHVPYTFGGGTKLEIK
binding reaction [resonance signal (RU)] [1]: the highest binding reaction

B4: HV0LV3-1/CHO: CHO/DG44 cell-derived anti-FGF-8 neutralizing CDR-grafted antibody, VH HV.0, VL LV.3-1 (SEQ ID NO. 44) (antibody, V domains shown)
VH: B1 VH
VL: B1 VL with I2V, L51V, Y92F
FGF-8 neutralizing activity (SC-3 cell growth inhibitory activity) [2]: the next high FGF-8 neutralizing activity | binding reaction [resonance signal (RU)] [3]: the higher binding reaction

B5: HV0LV4-1/CHO: CHO/DG44 cell-derived anti-FGF-8 neutralizing CDR-grafted antibody, VH HV.0, VL LV.4-1 (SEQ ID NO. 42) (antibody, V domains shown)
VH: B1 VH
VL: B1 VL with I2V, Q50K, L51V, Y92F
FGF-8 neutralizing activity (SC-3 cell growth inhibitory activity) [2]: slightly lower FGF-8 neutralizing activity than the HV0LV3-1/CHO | binding reaction [resonance signal (RU)] [3]: the higher binding reaction

B6: HV0LV6: YB2/0 cell-derived anti-FGF-8 neutralizing CDR-grafted antibody, VH HV.0 (SEQ ID NO. 18), VL LV.6 (SEQ ID NO. 21) (antibody, V domains shown)
VH: B1 VH
VL: B1 VL with I2V, T14S, P15L, Q50K, L51V, Y92F
modifications: HV.0, a designed amino acid sequence of VH of an anti-FGF-8 CDR-grafted neutralizing antibody; LV.6, a designed amino acid sequence of VL of an anti-FGF-8 CDR-grafted neutralizing antibody
binding reaction [resonance signal (RU)] [1]: the same high binding reaction as KM3334

B7: HV0LV4-3/CHO: CHO/DG44 cell-derived anti-FGF-8 neutralizing CDR-grafted antibody, VH HV.0, VL LV.4-3 (SEQ ID NO. 50) (antibody, V domains shown)
VH: B1 VH
VL: B1 VL with T14S, P15L, L51V, Y92F
FGF-8 neutralizing activity (SC-3 cell growth inhibitory activity) [2]: approximately half that of the chimeric antibody KM3034 | binding reaction [resonance signal (RU)] [3]: the higher binding reaction than that of the HV0LV3-1/CHO and similar to that of the HV0LV6/CHO

B8: HV0LV3-3/CHO: CHO/DG44 cell-derived anti-FGF-8 neutralizing CDR-grafted antibody, VH HV.0, VL LV.3-3 (SEQ ID NO. 51) (antibody, V domains shown)
VH: B1 VH
VL: B1 VL with T14S, P15L, L51V
FGF-8 neutralizing activity (SC-3 cell growth inhibitory activity) [2]: approximately half that of the chimeric antibody KM3034 | binding reaction [resonance signal (RU)] [3]: lower than that of the HV0LV3-1
